T1: biotinylated human DLL3 protein expressed as a human IgG1 fusion protein (human, UniProt Q9NYJ7 27-492, limits assumed, biotinylated)
T1 sequence: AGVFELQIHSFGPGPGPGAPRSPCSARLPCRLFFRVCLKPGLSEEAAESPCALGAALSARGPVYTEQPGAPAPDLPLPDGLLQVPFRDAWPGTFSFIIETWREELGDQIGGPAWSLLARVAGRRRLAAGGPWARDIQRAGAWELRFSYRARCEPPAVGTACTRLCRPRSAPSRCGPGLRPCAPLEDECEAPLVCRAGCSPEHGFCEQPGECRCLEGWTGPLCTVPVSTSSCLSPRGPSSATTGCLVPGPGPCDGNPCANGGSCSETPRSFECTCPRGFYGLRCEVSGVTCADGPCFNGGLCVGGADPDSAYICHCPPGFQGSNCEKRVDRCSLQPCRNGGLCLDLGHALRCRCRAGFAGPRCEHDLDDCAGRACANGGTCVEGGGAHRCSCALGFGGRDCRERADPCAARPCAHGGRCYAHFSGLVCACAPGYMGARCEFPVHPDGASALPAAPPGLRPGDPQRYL

B1: 2F08 anti-DLL3 trispecific protein (other)
chain: EVQLVESGGGLVQPGGSLTLSCVASGSKSSINAMGWYRRAPGKQRELPAGISSNGTKVYADSAKVRFTISRDNAKNSVYLQMNSLRAEDTAVYYCYYFRTVLGTSMRYWGQGTLVTVSS
notes: not shown: linker 1808, anti-albumin sdAb, linker 1808, anti-CD3 fragment, His6 1819
B2: 2H07 anti-DLL3 trispecific protein (other)
chain: EVQLVESGGGLVQPGGSLTLSCVASGSTSSINAVGWYRRAPGKQRELVAGISSDGSTVYADSVKGRFTISRDNAKNSVYLQMNSLRAEDTAVYYCYYFRTVSGHSMRYWGQGTLVTVSS
notes: as for B1
B3: 2F09 anti-DLL3 trispecific protein (other)
chain: EVQLVESGGGLVQPGGSLTLSCVASGSTSSINAMAWYRRAPGKQRELVAGISSDGSKLYADSVKGRFTISRDNAKNSVYLQMNSLRAEDTAVYYCYYFRTVSGSSMRYWGQGTLVTVSS
notes: as for B1
B4: 2H011 anti-DLL3 trispecific protein (other)
chain: EVQLVESGGGLVQPGGSLTLSCVASGSTSRINAMGWYRRAPGKQRELVAGISSDGSKVYADSVKGRFTISRDNAKNSVYLQMNSLRAEDTAVYYCYYFRRVSGSSMRYWGQGTLVTVSS
notes: as for B1
B5: 2G09 anti-DLL3 trispecific protein (other)
chain: EVQLVESGGGLVQPGGSLTLSCVASGSTSSINAMGWYRRAPGKQRELVAGVSSDGSKVYADSVKGRFTISRDNAKNSVYLQMNSLRAEDTAVYYCYYFRTVSGSSARYWGQGTLVTVSS
notes: as for B1
B6: 2G04 anti-DLL3 trispecific protein (other)
chain: EVQLVESGGGLVQPGGSLTLSCVASGSTSSINAMGWYRRAPGKQRELVAGISSDGSLVYADSVKGRFTISRDNAKNSVYLQMNSLRAEDTAVYYCYYFRILSGSSMRYWGQGTLVTVSS
notes: as for B1
B7: 2H06 anti-DLL3 trispecific protein (other)
chain: EVQLVESGGGLVQPGGSLTLSCVASGSTSTINAMGWYRRAPGKQRELVAGISSDGSKVYADSVKGRFTISRDNAKNSVYLQMNSLRAEDTAVYYCYYFRTASGSSMRYWGQGTLVTVSS
notes: as for B1
B8: 2H04 anti-DLL3 trispecific protein (other)
chain: EVQLVESGGGLVQPGGSLTLSCVASGSTSSINAMGWYRRAPGKQRELVAGISSDTSKVYADSVKGRFTISRDNAKNSVYLQMNSLRAEDTAVYYCYYFRTVSGSYMRYWGQGTLVTVSS
notes: as for B1
B9: 2H03 anti-DLL3 trispecific protein (other)
chain: EVQLVESGGGLVQPGGSLTLSCVASGSTSSINAMAWYRRAPGKQRELVAGISSDGSKVYADSVKGRFTISRDNAKNSVYLQMNSLRAEDTAVYYCYYFRQVSGSSMRYWGQGTLVTVSS
notes: as for B1
B10: 2G011 anti-DLL3 trispecific protein (other)
chain: EVQLVESGGGLVQPGGSLTLSCVASGSTSSINAMGWYRRAPGKQRELPAGISRDGSKVYADSVKGRFTISRDNAKNSVYLQMNSLRAEDTAVYYCYYFRYVSGSSMRYWGQGTLVTVSS
notes: as for B1
B11: 2G03 anti-DLL3 trispecific protein (other)
chain: EVQLVESGGGLVQPGGSLTLSCVASGSTSSINAMGWYRRAPGKQRELVAGISSDGSLVYADSVKGRFTISRDNAKNSVYLQMNSLRAEDTAVYYCYYFRTVSGSSMRAWGQGTLVTVSS
notes: as for B1
B12: 2G07 anti-DLL3 trispecific protein (other)
chain: EVQLVESGGGLVQPGGSLTLSCVASGSTSSINAMAWYRRAPGKQRELVAGISSDGSKVYADSVKGRFTISRDNAKNSVYLQMNSLRAEDTAVYYCYYFRTVQGSSMRYWGQGTLVTVSS
notes: as for B1
B13: 2H08 anti-DLL3 trispecific protein (other)
chain: EVQLVESGGGLVQPGGSLTLSCVASGSTSSINAMGWYRRAPGKQRELAAGISKDGSKVYADSAKGRFTISRDNAKNSVYLQMNSLRAEDTAVYYCYYFRTVSGSSSRYWGQGTLVTVSS
notes: as for B1
B14: 2G08 anti-DLL3 trispecific protein (other)
chain: EVQLVESGGGLVQPGGSLTLSCVASGSTSYINAMGWYRRAPGKQRELVAGISSDGSKVYADSVKGRFTISRDNAKNSVYLQMNSLRAEDTAVYYCYYFRTVSGQSMGYWGQGTLVTVSS
notes: as for B1
B15: 2H010 anti-DLL3 trispecific protein (other)
chain: EVQLVESGGGLVQPGGSLTLSCVASGSTSSINAMGWYRRAPGKQRELAAGISSDGSKLYADSVKGRFTISRDNAKNSVYLQMNSLRAEDTAVYYCYYFRTVSGSSMRYWGQGTLVTVSS
notes: as for B1
B16: 3F03 anti-DLL3 trispecific protein (other)
chain: EVQLVESGGGLVQPGGSLTLSCAASGSSVSFLSMAWYRQAPGKKRELVAGISADGSTDYIDSVKGRFTISRDNAKNSVYLQMNSLRAEDTAVYYCYAYRWRTRYTYWGQGTLVTVSS
notes: as for B1
B17: 3A08 anti-DLL3 trispecific protein (other)
chain: EVQLVESGGGLVQPGGSLTLSCAASGSSVGFLSMAWYRQAPGKKRELVAGISADGSTDYIRSVKGRFTISRDNAKNSVYLQMNSLRAEDTAVYYCYAYRWRTRYTYWGQGTLVTVSS
notes: as for B1
B18: 3B07 anti-DLL3 trispecific protein (other)
chain: EVQLVESGGGLVQPGGSLTLSCAASGSRVSFLSMAWYRQAPGKKRELVAGISADGSTTYIDSVKGRFTISRDNAKNSVYLQMNSLRAEDTAVYYCYAYRWTTRYTYWGQGTLVTVSS
notes: as for B1
B19: 3B01 anti-DLL3 trispecific protein (other)
chain: EVQLVESGGGLVQPGGSLTLSCAASGSSVSFLSMAWYRQAPGKKRELVAGISGDGSTDYIDSVKGRFTISRDNAKNSVYLQMNSLRAEDTAVYYCYAYRWTTRYTYWGQGTLVTVSS
notes: as for B1
B20: 3B04 anti-DLL3 trispecific protein (other)
chain: EVQLVESGGGLVQPGGSLTLSCAASGSNVSFLSMAWYRQAPGKKRELVAGISARGSTDYIDSVKGRFTISRDNAKNSVYLQMNSLRAEDTAVYYCYAYHWTTRYTYWGQGTLVTVSS
notes: as for B1
B21: 3A09 anti-DLL3 trispecific protein (other)
chain: EVQLVESGGGLVQPGGSLTLSCAASGSSVSFLSMAWYRQAPGKKRELVAGISADGSVDYIDSVKGRFTISRDNAKNSVYLQMNSLRAEDTAVYYCYAYRWTTRYIYWGQGTLVTVSS
notes: as for B1
B22: 3A04 anti-DLL3 trispecific protein (other)
chain: EVQLVESGGGLVQPGGSLTLSCAASGSQVSFLSMAWYRQAPGKKRELVAGISRDGSTDYIDSVKGRFTISRDNAKNSVYLQMNSLRAEDTAVYYCYAYRWTTRYIYWGQGTLVTVSS
notes: as for B1
B23: 3B02 anti-DLL3 trispecific protein (other)
chain: EVQLVESGGGLVQPGGSLTLSCAASGSSVQFLSMAWYRQAPGKKRELVAGISADGSTDYINSVKGRFTISRDNAKNSVYLQMNSLRAEDTAVYYCYAYRWRTRYTYWGQGTLVTVSS
notes: as for B1
B24: 3A01 anti-DLL3 trispecific protein (other)
chain: EVQLVESGGGLVQPGGSLTLSCAASGSSVKFLSMAWYRQAPGKKRELVAGISADGSTDYIDSVKGRFTISRDNAKNSVYLQMNSLRAEDTAVYYCYAYRWTRRYTYWGQGTLVTVSS
notes: as for B1
B25: 3A05 anti-DLL3 trispecific protein (other)
chain: EVQLVESGGGLVQPGGSLTLSCAASGSSVSFLSMAWYRQAPGKKRELVAGISEAGSTDYIDSVKGRFTISRDNAKNSVYLQMNSLRAEDTAVYYCYAYRWRTRYTYWGQGTLVTVSS
notes: as for B1
B26: 3A06 anti-DLL3 trispecific protein (other)
chain: EVQLVESGGGLVQPGGSLTLRCAASGSKVSFLSMAWYRQAPGKKRELVAGISADGSTDYVDSVKGRFTISRDNAKNSVYLQMNSLRAEDTAVYYCYAYRWTRRYTYWGQGTLVTVSS
notes: as for B1
B27: 3A03 anti-DLL3 trispecific protein (other)
chain: EVQLVESGGGLVQPGGSLTLSCAASGSRVSFLSMAWYRQAPGKKRELVAGISRDGSTDYIDSVKGRFTISRDNAKNSVYLQMNSLRAEDTAVYYCYAYRWTTRRTYWGQGTLVTVSS
notes: as for B1
B28: 3B05 anti-DLL3 trispecific protein (other)
chain: EVQLVESGGGLVQPGGSLTLSCVASGSSVKFLSMAWYRQAPGKKRELVAGISADGSTTYIDSVKGRFTISRDNAKNSVYLQMNSLRAEDTAVYYCYAYRWTTRRTYWGQGTLVTVSS
notes: as for B1
B29: 3A010 anti-DLL3 trispecific protein (other)
chain: EVQLVESGGGLVQPGGSLTLSCAASGSRVSFLSMAWYRQAPGKKRELVAGISADGSTLYIDSVKGRFTISRDNAKNSVYLQMNSLRAEDTAVYYCYAYRWTTRRTYWGQGTLVTVSS
notes: as for B1
B30: 3B06 anti-DLL3 trispecific protein (other)
chain: EVQLVESGGGLVQPGGSLTLSCAASGKSVSFLSMAWYRQAPGKKRELVAGISKDGSTDYIDSVKGRFTISRDNAKNSVYLQMNSLRAEDTAVYYCYAYRWTTRYTYWGQGTLVTVSS
notes: as for B1

The term Kd denotes the constant that tells how readily two partners part at equilibrium. A lower Kd goes with a tighter complex.

The target in the assay is T1, biotinylated human DLL3 protein …. The assay is described as follows: Octet BLI, single 50 nM. An outline of the steps:
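Affinities reflect binding of the trispecific constructs, supplied as conditioned medium of known protein concentration rather than purified material, to immobilised human DLL3 fusion protein.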
A general note: Biolayer interferometry detects binding as a change in optical thickness at a sensor tip.
Molecule B1 showed a Kd of 20 nM.
As for B2, the figure is 6.1 nM; as for B3, 6.5 nM.
As for B4, the figure is 5 nM.
B5: the affinity, expressed as Kd, was 8 nM.
For the molecule B6, the affinity, expressed as Kd, was 11 nM.
As for B7, the figure is 7.9 nM; as for B8, 6.3 nM.
Molecule B9 came in with a Kd of 5.3 nM.
As to B10, the Kd is 13 nM.
With B11, binding was characterised by a dissociation constant (Kd) of 5.6 nM.
In turn, B12 showed a Kd of 6.5 nM.
As for B13, the figure is 18 nM; as for B14, 4.1 nM.
Consider B15, for which binding was characterised by a dissociation constant (Kd) of 6.4 nM.
B16 had a Kd of 13 nM.
Molecule B17 had a Kd of 12 nM.
Turning to B18, binding was characterised by a dissociation constant (Kd) of 7.3 nM.
As for B19, the figure is 10 nM; as for B20, 24 nM; as for B21, 6.3 nM.
The molecule B22 returned a Kd of 9.2 nM.
As for B23, the figure is 12 nM.
B24 had a Kd of 16 nM.
Take B25: the affinity, expressed as Kd, was 15 nM.
B26 displayed a Kd of 16 nM.
As for B27, the figure is 12 nM; as for B28, 7.2 nM.
Molecule B29 gave a Kd of 12 nM.
B30: binding was put at a Kd of 15 nM.

The values are drawn from patent US20240141072A1 (published 2024).
